Literature values in publication PMC6425487.

Target: Cterm (position 6, KEKGLF-----)
Assay: NMR
Conditions: 150 mM; free peptide in solution

KEKGLF
pKa: 3.2
